# Laboratory results: the DeepSol protein solubility set
# Assay: soluble on expression in E. coli; label from the status in PepcDB or PDB records
row,Sequence,soluble on expression in E. coli
1,MSAKPVIVGGGPAGMSAAMELARHGVECVLLDEASRVGGVVYRGPLREGVVLDYLGERYRENMQALHREFEQVRDRIDIRLNTRVVGGGEGELFALTPDERVEAVPFSQLLLAAGCHERSVPFPGWTLPGVIMLGGLQLQIKSGVVKPLGRTVLVGTGPLLPLVACQLHRAGVEVAGVYEASAFGRLAKETIALLNQPQLFLDGLSMVAYLKRHGIPLHYGWGVVEAHGDAELGEVTVAPYDAEWRADLTRSRRLPAQTLAVGYGFIPRTQLTQQMGLEHRYADDGYLKPVNDEWQRSSRGNIHLAGDIGGLRGGEAAMISGRIAALSMLLQLGKLDEQQALRQRQACLDQMASILRFRKGIDSFTRRGRGQLALPARDTVICRCEHATRQDIDTALEQGVNDLISLKMRTRVSMGDCQGKMCVGYCSDRLREHTGKRDVGWIRPRFPLDPLPFSAFSAIDAQQTEEILEHHHHHH,not soluble
2,MIITTSRKPSQRTRSLVNDLARVFNFKILNRGKIPLSELIENKDDMIIVEELKGNPGRLKIFNFENNKILSMNLSLKLQREVSGKAFKNSGKLGSKFDKNTEHLKEFFFEYLFKKLSNYKEENFEVVITFKTVDESTFYIEVHKGSENMGPSLKIKTVKILDIELEHHHHHH,not soluble
3,MLKTILSIAGKPGLYKLISQGKNMLIVETVDAAKKRVPAYAHDKVISLADIAMYTDAEEVPLSEVLEAVKKKENGAVASINYKKASADELHAYFAEVLPNYDRDRVHNGDIKKLISWYNILVNNGITEFVEAPADSADKVEEAVAELEHHHHHH,soluble
4,MSETPLLFQTRDYRGATIEDLNIPLAVSINPTTSIYEAIGIAFENEFTYLPVIHERTKRLLGVINIEELKSNGDKLKRSILAPIVKSYMIWFNQSAKRKYEQENKEVLSSNRTAPKTTILKPRGKRYEVLTPMTPLEKLAEFFNSGNYFAIVTNGHGDFVYGVVTPQDLMKYEQSRPKL,soluble
5,MSLLVIVKVQQAKNPLERAFFYAVSPEDYYEQAERLLKEGVIDEEGLKKARIEEYVLGARFNANFHSYALKDVFGNFDFVGFSDRRQVNLQGFLNLPAKDQLKINVPVKNEEIGHFGVTMRESKQQEVYEAAEKFIEACKAEFPPGIIGMFGLQGAMAYSPEDETKLEFVIFDVSFRVPGDPAIGPTSPEMRNLTLKHGVKIEDPLDLTMMEIKKAMELKRMEEIVTEGHHHHHH,soluble
6,MSLEARGLNVTIMKLDPYINVDPGTMSPTQHGEVFVTQDGAETDLDLGHYERFIRTKMTKRNNFTTGKIYSEVLRKERRGDYLGATIQVIPHITNEIKDRVIAGAQGHDVVIVEVGGTVGDIESLPFLEALRQLAVQVGREHTLFMHLTLVPYIPTAGEVKTKPTQHSVKELLSIGIQPDVLICRSDRMIPPNERAKIALFCNVAERAVISLKDVNSIYQIPALLKSQGLDDFVCERFRLTCPEADLTEWEQVLYKQANPVGEVTIGMVGKYTELPDAYKSVNEALKHAGLTNRLSVNIKYIDSQDVETKGVEVLKGIDGILVPGGFGYRGVEGKIRTAQYARENKIPYLGICLGMQIALIEYARNVAGLTKANSSEFDKDCEQPVVALITEWQDAEGNTEVRTDESDLGGTMRLGAQQCHLVSGSRARELYGKETIEERHRHRYEVNNTLLPQIEKAGLKVTGLSADKKLVEIIEVPNHPWFVACQFHPEFTSTPRDGHPLFAGFVKAAYENHKKSVKEGHHHHHH,not soluble
7,MSLETFTGIRYETAVERVANGGFTDLPRQIEWRKALAAFQSAPIFGHGWNSFAQQTFLINAEQHNIHDNLLSNLFTHSHNIVLQLLAEMEGHHHHHH,not soluble
8,MSLDARKNNVTIKVGMIGDSSIGKTSLMVTYVQGSFDEESTQTLGVNFMEKTISIRNTEITFSIWDLGGQREFVNMLPMVCNDAVAILFMFDLSRKSTLNSIKEWYRQARGFNKTAVPILIGTKYDHFMTFPREDQEEITKQARRYAKAMKASLVFCSTSHSINVQKIFKIVLAKVFDLKCTIPEIKNVGDPILEYIDREGHHHHHH,soluble
9,MSLGRIGLRKLLQRIGIVAESMTPLATDPVEVTQLLDARWYDERLRALADELGRDPDSVRAEAAGYLREMAASLDERAVQAWRGFSRWLMRAYDVLVDEDQITQLRKLDRKATLAFAFSHRSYLDGMLLPEAILANRLSPALTFGGANLNFFPMGAWAKRTGAIFIRRQTKDIPVYRFVLRAYAAQLVQNHVNLTWSIEGGRTRTGKLRPPVFGILRYITDAVDEIDGPEVYLVPTSIVYDQLHEVEAMTTEAYGAVKRPEDLRFLVRLARQQGERLGRAYLDFGEPLPLRKRLQEMRADKSGTGSEIERIALDVEHRINRATPVTPTAVVSLALLGADRSLSISEVLATVRPLASYIAARNWAVAGAADLTNRSTIRWTLHQMVASGVVSVYDAGTEAVWGIGEDQHLVAAFYRNTAIHILVDRAVAELALLAAAETTTNGSVSPATVRDEALSLRDLLKFEFLFSGRAQFEKDLANEVLLIGSVVDTSKPAAAADVWRLLESADVLLAHLVLRPFLDAYHIVADRLAAHEDDSFDEEGFLAECLQVGKQWELQRNIASAESRSMELFKTALRLARHRELVDGADATDIAKRRQQFADEIATATRRVNTIAELARRQEGHHHHHH,soluble
10,MASYSEDQCSWRGSGLSQAVKNVEQVWLRCAEGSVEWLYPAGALRLTLSPRLPWSAMGPGESSRSPVSVCVKPDPHWGGAQLYLERDGVLELLVGDETSTTPGPAHVRCFSALPGERPALFLQATPHRDISRRIAAFRYELRGDWTAQPAVNTDPVSSEGACRPCNNTEILMAVCTSDFVVRGNIRSVGTDSNLNAAVIKVSATRVYRQKFALFPESGRLTRSGEIRTPLQCGVRPGAGSFLFTGRVHFGEAWLGCAPRYKDFLKAYEQAKQSLMIPCTLVND,not soluble
11,MGSDKIHHHHHHMDLDRIKGEIVAFVEGRKSEFAAIAEDLYLHPETGLNEVRSSALLADFLEREGFRVERGIAGLPTAFRAETGEGGPVIAFMAEMDALPVMGHACGHNVIAAAAVGAATALRSILPPDAARIVVLGTPAEEMGIGKVDMIANGAFDGVEFALMVHPSSRRYVIKHYLGLARVRFTFFGKPAHAAAYPEEGINALDGVIQTFNGISALRQQLRQDVRVHGIITEGGVAPNIIPERASAHFYVRADDLAELERAKARVLACAEGAALATGCRLQVDADPRIMAPLKVNRIFSDLYSAQLAYLDLQESENQPDKNKGSSDIGNVSQIVPTIHPHVPIGDGINIHSEAFARATVSGKGKAAVAEGATALALTAAELAARPDIREEIWREFRS,not soluble
12,MVELTPAAIQELERLQTHGVRRGQAAILRIQVQPSECGDWRYDLALVAEPKPTDLLTQSQGWTIAIAAEAAELLRGLRVDYIEDLMGGAFRFHNPNASQTCGCGMAFRVSRS,soluble
13,MANSLAIIADPKTGKTYKREIPSERMSSLIGRKIGEEVDGVFFDLVGYKMKITGGSSVDGFAMRPDLQTQGKKQILVKYTSGYRGKNGIRKRITARGSIIGSDITQINLKITQYGPTLEHHHHHH,not soluble
14,SMPEQSNDYRVVVFGAGGVGKSSLVLRFVKGTFRDTYIPTIEDTYRQVISCDKSVCTLQITDTTGSHQFPAMQRLSISKGHAFILVFSVTSKQSLEELGPIYKLIVQIKGSVEDIPVMLVGNKCDETQREVDTREAQAVAQEWKCAFMETSAKMNYNVKELFQELLTLETRRNMSLNIDGKRSGKQKRTDRVKGKCTLM,soluble
15,MGSDKIHHHHHHMSSGLYLYGIFPDPIPETVTLQGLDSQLVYSQIIDGFTFLYSEAKQEKYLASRRNLISHEKVLEQAMHAGFRTLLPLRFGLVVKNWETVVTQLLQPYKAQLRELFQKLAGRREVSVKIFWDSKAELQAMMDSHQDLKQKRDQMEGKALSMEEVIHIGQLIESNLLSRKESIIQVFFDELKPLADEVIESDPMTEDMIYNAAFLIPWENESIFSQQVESIDHKFDERLRIRYNNFTAPYTFAQIS,not soluble
16,MKKRRFPRVNAVLSRWGVALSDARETQAEQARLADFEARGGLEAPAYALSPGMRTFDLAPLVEEYAQHGEALAALHDPARNQTGYRSGNGYYDTPDAEALYLMIRRYQPRRVIEVGCGNSTRITRQAALDGGLETEITAIDPWPRADIAGVVDRFEQARLEEVDPAVFAALEADDVLFIDSSHQVRMSNDVAHLFCRIIPALAPGVVIHVHDVFLPYEYPKRFFYDCPSWAEQYVLHALIQSGGYDILWPGYYLQRARPDAVEALPFLGQGRAQSFWIRKL,not soluble
17,TNVISTLDLNLLTKGGGSWNVDGVNMKKSAVTTFDGKRVVKAVYDKNSGTSANPGVGGFSFSAVPDGLNKNAITFAWEVFYPKGFDFARGGKHGGTFIGHGAASGYQHSKTGASNRIMWQEKGGVIDYIYPPSDLKQKIPGLDPEGHGIGFFQDDFKNALKYDVWNRIEIGTKMNTFKNGIPQLDGESYVIVNGKKEVLKRINWSRSPDLLISRFDWNTFFGGPLPSPKNQVAYFTNFQMKKYELEHHHHHH,soluble
18,MADFLTRFIREELSWRGYEKAIVAVSGGVDSATTLALAVRALGAERVHALFLPHRESSPTSREHAYLVAETFGVALEEVDITPMVEGYAALTPDLTPHRKGNVMARARMIVLFDKSEAYRALPLGTGNKTERLFGYFTWHGDDTPPVNPLGDLYKTQVWRLAEHLGVPEEVVRKPPTADLIPGQTDEADLGLRYLRADVILEHYLKGYSDQYILGLGFTEEELRRVKERVNRTHWKRALPTVALLSSTAIGEFYLRPLDYRP,soluble
19,MSRFAPATPLLLSLLLTSCSPAQGVRVERITGGGMLYTVATVDPARDQLTLHWLNPATGKPYSSFAQLGSRLGKQGKKLLFATNSGIYMPGPKPLGLHVEGGKTLVGLNNAGKGGGNFALLPNGVFWLRGKKAGVTETQAYRKLGLAPDYATQSGPLLVANGKLHPDFNKSGTSFKVRSGVGVCGGGKVRFAISAGPVNFYSFATFFRDTLGCPDALYLDGSISAYATPDTDTQFTEFAGIWAVTARLEHHHHHH,soluble
20,MAEAGIAHTALPLEAIPEKSAGKGEGLTLIIYMLELALHAIPENLKKTVYSKVELMAPRSDGVLLFYGLCGNVLGKIEEDFRALDCRVSILKEENGEIVDDCIGAVLGGRGHYLEALKSCRGAGTFFLTPMWAVNWREMIRTAGLSRNPDDIEMSKFVFDYAGYKRVARVNTGLAYEKDFDARVKEFSTLFEFEVTDLEGTLQLVENCYAKTKASMLEACPHSQTLEHHHHHH,not soluble
21,TKVKSIPLLIVPPWINKYYILDLSPHNSLIRWLVEQGITVFIISWVNPDETYANKSFYDYLNEGPREAIAVIQKQLRVKQVNTLGFCIGGTLLASLLAYNKATKDHSIRSATFLAAMIDFSDPGDIAVFIDEQQINKLEEEMKSKGYLAGKFMASSFNSLRANDLIWSFFIKNYLRGKSPVPFDILYWNADSTNMPATMHSQYLRWMYLHNNLIKPGKIRLNHIPIDVTNIDIPTFFLSTQKDHIAPWKTTYKGFELMKGPKRFVLGGSGHI,not soluble
22,MSLIILTRDDEPRIFTPDSDAASPALHSTSPLPDPASASPLHREEKILPKVCNIVSCLSFSLPASPTDSGLASPTIITREGQQFWAKCLIWKYQLYLHGLHKKSDGRRDKQISASPST,soluble
23,MGSDKIHHHHHHALLWFSRFQRTGKLCVSLGWLLLTLLSLQPVADSLLKPIEDTYPTWRGEQPVNYVVVLGGGYTWNPEWAPSSNLINNSLPRLTEGIRLWQANPGSKMIFTGAAAKTNPVSTAEAGARVAESLGVPRSDIIVLDRPKDTEEEALAVKRAIGDAPFLLVTSASHLPRAMIFFRHAGLDPLPAPANQLAVTSPLNPWERAIPSPVWLMHSDRVGYETLGRVWQWLKGSSGEPGQE,not soluble
